Target: full-length human TRPV6 (transient receptor potential vanilloid subfamily member 6) (human)
Assay: cryo-EM structure

Sequence of full-length human TRPV6 (transient receptor potential vanilloid subfamily member 6) (human) (Q9H1D0 whole entry): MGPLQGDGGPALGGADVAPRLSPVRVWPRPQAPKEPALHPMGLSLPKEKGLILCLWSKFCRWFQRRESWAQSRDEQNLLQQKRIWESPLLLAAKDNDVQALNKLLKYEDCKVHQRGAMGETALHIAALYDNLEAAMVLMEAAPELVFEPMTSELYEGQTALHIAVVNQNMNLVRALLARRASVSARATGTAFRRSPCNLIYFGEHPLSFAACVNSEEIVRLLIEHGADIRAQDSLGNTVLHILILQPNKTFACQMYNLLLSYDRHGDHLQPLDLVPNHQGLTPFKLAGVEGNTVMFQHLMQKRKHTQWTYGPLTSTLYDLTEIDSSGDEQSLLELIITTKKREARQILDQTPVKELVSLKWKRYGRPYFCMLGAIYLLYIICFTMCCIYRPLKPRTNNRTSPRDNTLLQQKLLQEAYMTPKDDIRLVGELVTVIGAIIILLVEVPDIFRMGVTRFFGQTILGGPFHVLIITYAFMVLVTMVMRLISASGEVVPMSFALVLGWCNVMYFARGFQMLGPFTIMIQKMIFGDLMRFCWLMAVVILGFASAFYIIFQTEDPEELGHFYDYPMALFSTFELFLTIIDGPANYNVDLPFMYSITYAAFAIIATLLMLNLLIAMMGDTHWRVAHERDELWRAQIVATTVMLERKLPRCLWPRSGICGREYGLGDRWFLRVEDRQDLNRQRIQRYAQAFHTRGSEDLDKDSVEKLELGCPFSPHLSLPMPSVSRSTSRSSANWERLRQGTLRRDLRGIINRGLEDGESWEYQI

- stoichiometry N (CaM molecule per hTRPV6 tetramer): 1
Substance: human calmodulin (CaM), recombinant (from UniProt P0DP23 1-149) (natural protein)

From publication PMC6093632
